Laboratory results as given in PMC3875630 (ACS chemical biology, 2013).
Where two headings read alike, the source gives them in different places.

How the values were obtained:
crystal structure [1] = biological target: the molecule itself; test: crystal structure
crystal structure [2] = biological target: the molecule itself; test: crystal structure; remark: listed apart in the source

Row | Protein | stoichiometry N (crystal structure [1]) | stoichiometry N (crystal structure [2])
1 | Selenomethionyl CalS11 (TDP-rhamnose 3'-O-methyltransferase), cell-free synthesized (enzyme, Micromonospora echinospora, selenomethionine in place of methionine) DSGDGQDLRAFVHDSPEETETTQRLTKLLTNSPIPTEELVNNLPLFLRRHQMTDLLSMDALYRQVLDVPGVIMEFGVRFGRHLGTFAALRGVYEPYNPLRRIVGFDTFTGFPDVNDVDRVGPTAYQGRFAVPGGYPAYLKEVLDAHECSDFFGHVTQRSVLVEGDVRETVPRYLAENPQTVIALAYFDLDLYEPTKAVLEAIRPYLTKGSIVAFDELDNPKWPGENIAMRKVLGLDHAPLRLLPGRPAPAYLRWGD | 10 | 
2 | Native CalS11 (TDP-rhamnose 3'-O-methyltransferase), from E. coli (enzyme, Micromonospora echinospora) MDSGDGQDLRAFVHDSPEETETTQRLTKLLTNSPIPTEELVNNLPLFLRRHQMTDLLSMDALYRQVLDVPGVIMEFGVRFGRHLGTFAALRGVYEPYNPLRRIVGFDTFTGFPDVNDVDRVGPTAYQGRFAVPGGYPAYLKEVLDAHECSDFFGHVTQRSVLVEGDVRETVPRYLAENPQTVIALAYFDLDLYEPTKAVLEAIRPYLTKGSIVAFDELDNPKWPGENIAMRKVLGLDHAPLRLLPGRPAPAYLRWGD |  | 10
